This passage reports Km, kcat and kcat/Km results from PMC7331820, “Identification of the amino acid position controlling the different enzymatic activities in walnut tyrosinase isoenzymes (jrPPO1 and jrPPO2)” (Scientific Reports, 2020).

Changes are numbered by the printed parent chain. Numbers in names are those of the source.

Broadly, the Km is the substrate concentration at which the rate is half of its maximum. Broadly, the kcat is the number of substrate molecules converted per active site and unit of time at saturation. A word on the kcat/Km: it is the turnover number divided by the Michaelis constant.

Assay in all cases: photometric initial rates, Michaelis-Menten fit
One series has as its target T1, jrPPO1 (Juglans regia, UniProt C0LU17).
T1 construct: gene PPO1; latent enzyme (active domain plus C-terminal domain, no transit peptide), expressed in E. coli from pGEX-6P-1 with N-terminal GST tag (tag absent by mass)
The format is biochemical. To be noted: pH 6.0, 50 mM sodium phosphate, 2.0 mM SDS as activator, 25 °C. The text has this:
(§1) photometric initial rates, Michaelis-Menten fit on jrPPO1

The target in the next series is T2, jrPPO2 (Juglans regia, UniProt A0A2I4DDQ0, D361N/F398L/S401P/D582N).
T2 construct: gene LOC108979139; latent enzyme (active domain plus C-terminal domain, no transit peptide), E. coli, pGEX-6P-1, N-terminal GST tag (absent by mass)
The format is biochemical. To be noted: pH 6.0, 50 mM sodium phosphate, 2.5 mM SDS as activator, 25 °C. An excerpt:
(§2) photometric initial rates, Michaelis-Menten fit on jrPPO2

Substrate in series [1]: O=C(O)c1cc(O)c(O)c(O)c1
It is filed as biochemical, Juglans regia. To be noted: pH 6.0, 50 mM sodium phosphate, 2.5 mM SDS as activator, 25 °C.
Excerpt: as §2

Substrate in series [2]: O=C1c2c(O)cc(O)cc2O[C@H](c2ccc(O)c(O)c2)[C@H]1O
It is filed as biochemical, Juglans regia. To be noted: pH 6.0, 50 mM sodium phosphate, 2.5 mM SDS as activator, 10% DMSO, 25 °C.
Excerpt: as §2

Substrate in series [3]: NCCc1ccc(O)c(O)c1
The format is biochemical, Juglans regia. The settings on record: pH 6.0, 50 mM sodium phosphate, 2.5 mM SDS as activator, 25 °C.
Excerpt: as §2

Substrate in series [4]: O=C(O)/C=C/c1ccc(O)c(O)c1
It is filed as biochemical, Juglans regia. To be noted: pH 6.0, 50 mM sodium phosphate, 2.5 mM SDS as activator, 25 °C.
Excerpt: as §2

Substrate in series [5]: N[C@@H](Cc1ccc(O)c(O)c1)C(=O)O
The format is biochemical, Juglans regia. The settings on record: pH 6.0, 50 mM sodium phosphate, 2.5 mM SDS as activator, 25 °C.
Excerpt: as §2

Substrate in series [6]: NCCc1ccc(O)cc1
The format is biochemical, Juglans regia. To be noted: pH 6.0, 50 mM sodium phosphate, 2.5 mM SDS as activator, 25 °C.
Excerpt: as §2

Substrate in series [7]: O=C(O)/C=C/c1ccc(O)cc1
It is filed as biochemical, Juglans regia. To be noted: pH 6.0, 50 mM sodium phosphate, 2.5 mM SDS as activator, 25 °C.
Excerpt: as §2

Substrate in series [8]: O=C(O)Cc1ccc(O)cc1
It is filed as biochemical, Juglans regia. The settings on record: pH 6.0, 50 mM sodium phosphate, 2.5 mM SDS as activator, 25 °C.
Excerpt: as §2

Substrate in series [9]: CCOC(=O)c1cc(O)c(O)c(O)c1
The format is biochemical, Juglans regia. To be noted: pH 6.0, 50 mM sodium phosphate, 2.5 mM SDS as activator, 25 °C.
Excerpt: as §2

Substrate in series [10]: O=C(O)c1ccc(O)c(O)c1
It is filed as biochemical, Juglans regia. To be noted: pH 6.0, 50 mM sodium phosphate, 2.5 mM SDS as activator, 25 °C.
Excerpt: as §2

Substrate in series [11]: NCCc1ccc(O)c(O)c1
The format is biochemical, Juglans regia. The settings on record: pH 6.0, 50 mM sodium phosphate, 2.0 mM SDS as activator, 25 °C.
Excerpt: as §1

T1 sequence (C0LU17 entry or part of it): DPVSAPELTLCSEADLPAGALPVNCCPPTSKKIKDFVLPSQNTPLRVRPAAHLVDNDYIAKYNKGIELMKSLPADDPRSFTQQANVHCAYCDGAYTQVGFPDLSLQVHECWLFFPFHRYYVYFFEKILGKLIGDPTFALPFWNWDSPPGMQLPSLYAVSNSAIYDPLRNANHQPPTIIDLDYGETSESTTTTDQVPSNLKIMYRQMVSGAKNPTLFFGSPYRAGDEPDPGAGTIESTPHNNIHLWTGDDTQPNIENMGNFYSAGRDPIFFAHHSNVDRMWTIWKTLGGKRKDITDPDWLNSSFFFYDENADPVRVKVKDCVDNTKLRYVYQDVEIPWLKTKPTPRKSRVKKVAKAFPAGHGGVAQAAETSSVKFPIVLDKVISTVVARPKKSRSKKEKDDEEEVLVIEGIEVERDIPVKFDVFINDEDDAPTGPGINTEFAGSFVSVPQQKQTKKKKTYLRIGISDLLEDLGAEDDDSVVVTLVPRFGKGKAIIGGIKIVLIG

With `Oc1cccc(O)c1O` [compound 1, Pyrogallol], the Km was 1.2 ± 0.13 mM on jrPPO1 and 1 ± 0.12 mM on jrPPO2.

B1: jrPPO2 (Juglans regia; D361N/D582N/F398L/S401P) (protein)
chain: APVSAPDITKCGKADFPAGAKPTNCCPPPSTKIIDFKLPTKNSPLRVRPAAHLADKEYIAKYNKAIELMKALPADDPRNFTQQANVHCAYCDGAYEQVGFPNLDLQVHNSWLFFPFHRYYLYFYEKILGKLIGDPTFALPFWNWDAPAGMQLPAMYANPKSSLYDALRNANHQPPTLMDLDYNGTDEETTSQDQLSANLSIMYRQMVSNGKNAKLFLGSAYRAGDEPDPGAGSIENIPHGPVHIWTGDNTQPNLENMGNFYSAGRDPIFFAHHSNVDRMWSIWKTLGGKRTDLTEPDWLNAGFLFYDENGQAVRVKVKDCLDTTKLGYVYQDVDLPWLKSKPTRKSKLKKVAKFFHLGHQGDVAIAAETSPSVNFPIVLDKVISTVVARPRKSRSKKEKEDEEEVLVIGAIEFDRDAPVKFDVFINDEDDSPTTRPDKTEFAGSFVNVPHKHKHGKKMNTCLRLGISDLLEDLDAENDDTIVVTLVPRYGKGLASINGIKIELLD
notes: latent enzyme (active domain plus C-terminal domain, no transit peptide), E. coli, pGEX-6P-1, N-terminal GST tag (absent by mass)
For B1, the Km in [1] is 0.18 ± 0.04 mM; in series [2] it was 0.92 ± 0.15 mM; in series [3] it was 0.79 ± 0.17 mM; in series [4], 0.21 ± 0.02 mM; in series [5], 5.66 ± 0.70 mM; in series [6], 0.49 ± 0.11 mM. The Km was determined as 0.94 ± 0.12 mM in series [7], 4.43 ± 0.55 mM in [8], 6.60 ± 0.79 mM in series [9] and 0.09 ± 0.02 mM in [10]. The kcat was determined as 2.07 ± 0.18 s⁻¹ in series [1]; 19.6 ± 2.04 s⁻¹ in series [2]; 186 ± 19.1 s⁻¹ in series [3]; 8.37 ± 0.2 s⁻¹ in series [4]; 132 ± 7.05 s⁻¹ in series [5]; 9.14 ± 0.83 s⁻¹ in series [6]. Further, the kcat was determined as 0.37 ± 0.02 s⁻¹ in series [7], 32.3 ± 2.18 s⁻¹ in [8], 59.5 ± 3.89 s⁻¹ in series [9] and 9.84 ± 0.52 s⁻¹ in series [10]. Further, the kcat/Km in series [1] came out at 11500 ± 2740 M⁻¹ s⁻¹; in series [2], 21300 ± 4120 M⁻¹ s⁻¹; in [3], 235000 ± 56100 M⁻¹ s⁻¹; in series [4], 39900 ± 3910 M⁻¹ s⁻¹; in [5], 23300 ± 3140 M⁻¹ s⁻¹; in series [6] it was 18700 ± 4650 M⁻¹ s⁻¹. For the same molecule, the kcat/Km in series [7] was 390 ± 50 M⁻¹ s⁻¹; in series [8], 7290 ± 1030 M⁻¹ s⁻¹; in [9], 9020 ± 1220 M⁻¹ s⁻¹; in series [10] it was 109000 ± 25000 M⁻¹ s⁻¹.

B2: jrPPO2 (Juglans regia; D361N/D582N/F398L/G345N/S401P) (protein)
chain: B1 chain with G240N
notes: as for B1
In the case of B2, in [6], the Km came to 0.21 ± 0.06 mM, the kcat turned out to be 10.9 ± 0.71 s⁻¹ and the kcat/Km was found to be 51900 ± 15300 M⁻¹ s⁻¹.

B3: jrPPO1 (Juglans regia; N340G) (protein)
chain: DPVSAPELTLCSEADLPAGALPVNCCPPTSKKIKDFVLPSQNTPLRVRPAAHLVDNDYIAKYNKGIELMKSLPADDPRSFTQQANVHCAYCDGAYTQVGFPDLSLQVHECWLFFPFHRYYVYFFEKILGKLIGDPTFALPFWNWDSPPGMQLPSLYAVSNSAIYDPLRNANHQPPTIIDLDYGETSESTTTTDQVPSNLKIMYRQMVSGAKNPTLFFGSPYRAGDEPDPGAGTIESTPHGNIHLWTGDDTQPNIENMGNFYSAGRDPIFFAHHSNVDRMWTIWKTLGGKRKDITDPDWLNSSFFFYDENADPVRVKVKDCVDNTKLRYVYQDVEIPWLKTKPTPRKSRVKKVAKAFPAGHGGVAQAAETSSVKFPIVLDKVISTVVARPKKSRSKKEKDDEEEVLVIEGIEVERDIPVKFDVFINDEDDAPTGPGINTEFAGSFVSVPQQKQTKKKKTYLRIGISDLLEDLGAEDDDSVVVTLVPRFGKGKAIIGGIKIVLIG
notes: latent enzyme (active domain plus C-terminal domain, no transit peptide), expressed in E. coli from pGEX-6P-1 with N-terminal GST tag (tag absent by mass)
With B3, in series [11], the Km worked out at 0.49 ± 0.07 mM, the catalytic constant (kcat) was 300 ± 16.5 s⁻¹ and the kcat/Km turned out to be 612000 ± 93700 M⁻¹ s⁻¹.
